Assays:
[1] = target: T1, CD73 in human serum (human, UniProt P21589 27-574); assay: cell-based or functional assay
T1 sequence: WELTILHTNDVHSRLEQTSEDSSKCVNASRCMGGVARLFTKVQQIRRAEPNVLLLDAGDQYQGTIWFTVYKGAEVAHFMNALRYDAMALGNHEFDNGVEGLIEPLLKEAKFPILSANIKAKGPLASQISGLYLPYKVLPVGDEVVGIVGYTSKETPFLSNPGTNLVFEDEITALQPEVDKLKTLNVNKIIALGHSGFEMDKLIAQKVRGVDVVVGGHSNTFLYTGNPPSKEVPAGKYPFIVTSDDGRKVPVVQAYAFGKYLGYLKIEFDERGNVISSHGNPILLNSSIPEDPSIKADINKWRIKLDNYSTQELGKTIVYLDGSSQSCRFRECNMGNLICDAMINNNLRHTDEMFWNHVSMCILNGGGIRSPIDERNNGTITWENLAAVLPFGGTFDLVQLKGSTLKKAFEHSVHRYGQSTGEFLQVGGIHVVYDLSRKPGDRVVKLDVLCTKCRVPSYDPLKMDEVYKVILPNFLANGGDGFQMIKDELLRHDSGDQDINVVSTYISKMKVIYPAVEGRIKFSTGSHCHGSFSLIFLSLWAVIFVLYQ

[2] = target: T2, human CD73 expressed on cells (human, UniProt P21589 27-549); assay: cell-based or functional assay
T2 sequence: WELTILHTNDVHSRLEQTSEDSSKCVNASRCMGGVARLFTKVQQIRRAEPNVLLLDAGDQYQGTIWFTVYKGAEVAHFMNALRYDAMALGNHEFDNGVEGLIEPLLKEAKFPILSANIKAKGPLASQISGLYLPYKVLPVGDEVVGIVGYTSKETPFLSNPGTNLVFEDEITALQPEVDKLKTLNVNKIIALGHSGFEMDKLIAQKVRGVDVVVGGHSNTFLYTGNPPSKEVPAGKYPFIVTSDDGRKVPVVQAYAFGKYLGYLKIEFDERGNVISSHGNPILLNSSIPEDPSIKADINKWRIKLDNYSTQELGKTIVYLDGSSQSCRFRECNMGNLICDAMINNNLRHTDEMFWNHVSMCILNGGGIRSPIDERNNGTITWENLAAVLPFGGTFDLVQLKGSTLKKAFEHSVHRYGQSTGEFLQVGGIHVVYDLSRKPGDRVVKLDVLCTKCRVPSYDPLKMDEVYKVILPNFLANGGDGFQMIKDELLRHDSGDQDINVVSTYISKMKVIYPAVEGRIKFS

B1: 2H4+2L1 anti-CD73 antibody (antibody, human IgG1, kappa, V domains shown)
VH: QIQLVQSGAEVKKPGASVKVSCKASGYTFASYNMYWVRQAPGQRLEWIGYIDPYNGGSSYNQKFKGRVTLTRDKSASTAYMELSSLRSEDTAVYYCARGYNNYKAWFAYWGQGTLVTVSS
VL: DIQMTQSPSSLSASVGDRVTITCKASQSVTNDVAWYQQKPGKAPKLLIYYASNRYTGVPSRFSGSGYGTDFTFTISSLQPEDIATYYCQQDYSSLTFGQGTKLEIKR
enzymatic inhibition, in vitro assay on human serum (IC50) [1]: 12.3 ng/mL | enzymatic inhibition, in vitro assay on A375 tumor cells (IC50) [2]: 34 ng/mL | enzymatic inhibition, in vitro assay on MDA-MB231 tumor cells (IC50) [2]: 127 ng/mL | reversion of AMP inhibited T cell proliferation on CD4+ T cells (IC50) [2]: 8.1 ng/mL | reversion of AMP inhibited T cell proliferation on CD8+ T cells (IC50) [2]: 7.7 ng/mL

Reference: patent US20240270865A1 (INNATE PHARMA, published 2024)
